Positions count from the first letter of the chain named. Names may count otherwise.

30 molecules from US20250352661A1 (MYTHIC THERAPEUTICS, published 2025) can be followed below.

T1: Human LRRC15 Protein, His Tag (Acro Biosystems) (human, UniProt Q8TF66 22-538, limits assumed)
T1 construct: Bought protein with His tag
T1 sequence (looked up): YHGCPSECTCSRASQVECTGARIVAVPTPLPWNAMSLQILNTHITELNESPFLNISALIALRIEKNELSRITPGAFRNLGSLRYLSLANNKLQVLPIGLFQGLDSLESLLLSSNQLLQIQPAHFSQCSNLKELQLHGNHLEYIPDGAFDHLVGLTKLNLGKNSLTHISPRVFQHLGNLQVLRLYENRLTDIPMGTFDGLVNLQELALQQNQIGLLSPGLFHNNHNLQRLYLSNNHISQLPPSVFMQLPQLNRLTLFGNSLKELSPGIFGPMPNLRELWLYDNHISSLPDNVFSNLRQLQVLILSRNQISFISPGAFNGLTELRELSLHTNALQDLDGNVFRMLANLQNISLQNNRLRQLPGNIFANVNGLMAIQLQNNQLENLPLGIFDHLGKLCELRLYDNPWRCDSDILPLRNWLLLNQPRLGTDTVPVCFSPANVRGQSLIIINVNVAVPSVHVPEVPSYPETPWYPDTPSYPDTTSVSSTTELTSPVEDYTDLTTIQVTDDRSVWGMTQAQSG

T2: Human LRRC15 Protein, His Tag (Acro Biosystems) (human, UniProt Q8TF66 22-538, limits assumed)
T2 construct: not shown: His tag
T2 sequence (looked up): T1 sequence (looked up)

B1: MYT6122 (antibody, V domains shown)
VH: QEQLEESGGDLVKPGASLTLTCTASGLDFRRTNYICWVRQAPGKGLEWIGCIYIADVVHYYASWAKGRFTFSKTSSTTVTLQMTSLTAADTATYFCARGADGGFVYGMDLWGPGTLVTVSS
VL: DVVMTQTPASVSEPVGGTVTIKCHASQSIGNYLSWYQQKPGQRPKRLIYSASTLPSGVPSRFKGAGSGTEFTLTISDLESADAATYYCQNNYWLAGYGHPFGGGTEVVVK
notes: rabbit 15G7 VL Q24H; chimeric, human constant regions
B2: MYT6146 (antibody, V domains shown)
VH: B1 VH
VL: B1 VL with H24Q, A95H
notes: rabbit 15G7 VL A95H; chimeric, human constant regions
B3: MYT6140 (antibody, V domains shown)
VH: B1 VH
VL: B1 VL with H24Q, Q89H
notes: rabbit 15G7 VL Q89H; chimeric, human constant regions
B4: MYT6133 (antibody, V domains shown)
VH: B1 VH
VL: B1 VL with H24Q, S50H
notes: rabbit 15G7 VL S50H; chimeric, human constant regions
B5: MYT6139 (antibody, V domains shown)
VH: B1 VH
VL: B1 VL with H24Q, S56H
notes: rabbit 15G7 VL S56H; chimeric, human constant regions
B6: MYT6129 (antibody, V domains shown)
VH: B1 VH
VL: B1 VL with H24Q, N31H
notes: rabbit 15G7 VL N31H; chimeric, human constant regions
B7: MYT6127 (antibody, V domains shown)
VH: B1 VH
VL: B1 VL with H24Q, I29H
notes: rabbit 15G7 VL I29H; chimeric, human constant regions
B8: MYT6124 (antibody, V domains shown)
VH: B1 VH
VL: B1 VL with H24Q, S26H
notes: rabbit 15G7 VL S26H; chimeric, human constant regions
B9: MYT6130 (antibody, V domains shown)
VH: B1 VH
VL: B1 VL with H24Q, Y32H
notes: rabbit 15G7 VL Y32H; chimeric, human constant regions
B10: MYT6128 (antibody, V domains shown)
VH: B1 VH
VL: B1 VL with H24Q, G30H
notes: rabbit 15G7 VL G30H; chimeric, human constant regions
B11: MYT6135 (antibody, V domains shown)
VH: B1 VH
VL: B1 VL with H24Q, S52H
notes: rabbit 15G7 VL S52H; chimeric, human constant regions
B12: MYT6137 (antibody, V domains shown)
VH: B1 VH
VL: B1 VL with H24Q, L54H
notes: rabbit 15G7 VL L54H; chimeric, human constant regions
B13: MYT6141 (antibody, V domains shown)
VH: B1 VH
VL: B1 VL with H24Q, N90H
notes: rabbit 15G7 VL N90H; chimeric, human constant regions
B14: MYT6145 (antibody, V domains shown)
VH: B1 VH
VL: B1 VL with H24Q, L94H
notes: rabbit 15G7 VL L94H; chimeric, human constant regions
B15: MYT6134 (antibody, V domains shown)
VH: B1 VH
VL: B1 VL with H24Q, A51H
notes: rabbit 15G7 VL A51H; chimeric, human constant regions
B16: MYT6144 (antibody, V domains shown)
VH: B1 VH
VL: B1 VL with H24Q, W93H
notes: rabbit 15G7 VL W93H; chimeric, human constant regions
B17: MYT6131 (antibody, V domains shown)
VH: B1 VH
VL: B1 VL with H24Q, L33H
notes: rabbit 15G7 VL L33H; chimeric, human constant regions
B18: MYT6132 (antibody, V domains shown)
VH: B1 VH
VL: B1 VL with H24Q, S34H
notes: rabbit 15G7 VL S34H; chimeric, human constant regions
B19: MYT6123 (antibody, V domains shown)
VH: B1 VH
VL: B1 VL with H24Q, A25H
notes: rabbit 15G7 VL A25H; chimeric, human constant regions
B20: MYT6143 (antibody, V domains shown)
VH: B1 VH
VL: B1 VL with H24Q, Y92H
notes: rabbit 15G7 VL Y92H; chimeric, human constant regions
B21: MYT6125 (antibody, V domains shown)
VH: B1 VH
VL: B1 VL with H24Q, Q27H
notes: rabbit 15G7 VL Q27H; chimeric, human constant regions
B22: MYT6136 (antibody, V domains shown)
VH: B1 VH
VL: B1 VL with H24Q, T53H
notes: rabbit 15G7 VL T53H; chimeric, human constant regions
B23: MYT6138 (antibody, V domains shown)
VH: B1 VH
VL: B1 VL with H24Q, P55H
notes: rabbit 15G7 VL P55H; chimeric, human constant regions
B24: MYT6126 (antibody, V domains shown)
VH: B1 VH
VL: B1 VL with H24Q, S28H
notes: rabbit 15G7 VL S28H; chimeric, human constant regions
B25: MYT6142 (antibody, V domains shown)
VH: B1 VH
VL: B1 VL with H24Q, N91H
notes: rabbit 15G7 VL N91H; chimeric, human constant regions
B26: MYT7953 (antibody, V domains shown)
VH: QQQLVESGGGLVKPGASLTLTCKASGFSFSGSYWICWVRQAPGKGLEWIGCINGGSLDITYYASWAKGRFTISKASSTTVTLQKTSLTAADTATYFCASDTSYTAYGNFYFNLWGPGTLVTVSS
VL: AQVLTQTASPVSAAVGGTVTINCQSSQSVLNNNWLAWYQQKPGQPPKLLIYDASSLASGVPSRFKGSGSGTQFTLTISDLESDDAATYYCQGEFSCGHADCNAFGGGTEVVVKG
notes: tested as culture supernatant; also called 24D9 VL S98H
B27: MYT7957 (antibody, V domains shown)
VH: B26 VH
VL: B26 VL with H98S, N102H
notes: tested as culture supernatant; also called 24D9 VL N102H
B28: MYT7958 (antibody, V domains shown)
VH: B26 VH
VL: B26 VL with H98S, A103H
notes: tested as culture supernatant; also called 24D9 VL A103H
B29: MYT7954 (antibody, V domains shown)
VH: B26 VH
VL: B26 VL with H98S, A99H
notes: also called 24D9 VL A99H
B30: MYT7955 (antibody, V domains shown)
VH: B26 VH
VL: B26 VL with H98S, D100H
notes: tested as culture supernatant; also called 24D9 VL D100H

For the first assay, the target named is T1, Human LRRC15 Protein, His Tag (Acro …). Put plainly: BLI; dissociation pH 7.4 black, pH 5.4 grey [D00008 FIG. 1F]. The text has this:
For each individual plot, antigen binding proteins were captured on anti-human Fc biosensors and associated with LRRC15 at pH 7.4. Dissociation was at pH 7.4 (black) or pH 5.4 (grey). Major X-axis ticks=100 seconds, with left dashed vertical line=0 seconds. Major Y-axis ticks=0.5 nm and octet plots are shown MYT5712 and MYT6080-MYT6121.
Multiple LRRC15-binding monoclonal antibodies have been described in the literature and can be used as a template for engineering pH-dependent binding. We selected discovery RabMAb clone 15G7 (rabbit VH SEQ ID NO: 378, rabbit VL SEQ ID NO: 451; humanized VH SEQ ID NO: 382, humanized VL SEQ ID NO: 455) as a LRRC15-binding monoclonal antibody for pH-engineering via histidine scanning. […] To generate pH-dependent sequence variants, individual amino acid residues within the heavy chain CDRs were systematically substituted with a histidine (or alanine if H was already present in a given position; e.g., MYT6099), one at a time (rabbit, MYT6080-6121). Desirable mutations were transferred to a humanized framework (humanized, MYT 8387-8411). After allowing for four days of protein expression, cell culture supernatants were collected, quantified by SDS-PAGE analysis, and the pH dependence of the variant was evaluated using biolayer interferometry (BLI) on an Octet RED 96e instrument. Briefly, cell culture supernatants were diluted based on qualitative expression level of the variant determined by visual examination of SDS-PAGE gels, 5 μL of cell culture supernatant was diluted into 195 μL of 1×PBST, pH 7.4 for high expressors, 25 μL of cell culture supernatant was diluted into 175 μL of 1×PBST, pH 7.4 for medium expressors and 100 μL of cell culture supernatant was diluted into 100 μL of 1×PBST, pH 7.4 for low expressors for loading onto the sensor tips.
(Biolayer interferometry detects binding as a change in optical thickness at a sensor tip.)
On to B1, for which the binding result is on record as “binds”.
As for B2, the binding result is recorded as “binds”.
Turning to B3, the binding result is reported as “binds”.
Take B4: the binding result is “binds”.
On the same count and under the same terms, next, B5: “binds”; B6: “binds”; B7: “binds”.
For the molecule B8, the binding result is “binds”.
On to B9, for which the binding result was “binds”.
Same read-out and setting: the same measure for B10: “binds”; for B11: “binds”; for B12: “binds”.
For B13, the binding result was “no binding (tested: 50 nM LRRC15)”.
As for B14, the binding result is given as “no binding (tested: 50 nM LRRC15)”.
B15: the binding result is “binds”.
As for B16, the binding result is reported as “binds”.
Turning to B17, the binding result is reported as “binds”.
For the molecule B18, the binding result was “binds”.
As for B19, the binding result is “binds”.
Still for that read-out and setting: the same measure for B20: “binds”; for B21: “binds”.
With B22, the binding result is “binds”.
B23: the binding result was “binds”.
Turning to B24, the binding result was “binds”.
Take B25: the binding result is “binds”.

In another assay the target is T2, Human LRRC15 Protein, His Tag (Acro …). Put plainly: BLI; dissociation pH 7.4 black, pH 5.4 grey [D00016 FIG. 3B].
Consider B26, for which the binding result is given as “binds”.
Still for that read-out and setting: next, B27: “no binding (tested: 50 nM LRRC15)”; B28: “no binding (tested: 50 nM LRRC15)”; B29: “binds”.
In the case of B30, the binding result was “no binding (tested: 50 nM LRRC15)”.
